According to publication PMC2862490 (Proteomics, 2009):
Square brackets hold non-standard residues; d marks the D form. Ends that are not written are not given here. pY = N[C@@H](Cc1ccc(OP(=O)(O)O)cc1)C(=O)O; Ahx = NCCCCCC(=O)O

T1: GST tagged N SH2 domain of PLCγ-1 (544–659) (human, UniProt P19174 544-659)
T1 sequence (looked up): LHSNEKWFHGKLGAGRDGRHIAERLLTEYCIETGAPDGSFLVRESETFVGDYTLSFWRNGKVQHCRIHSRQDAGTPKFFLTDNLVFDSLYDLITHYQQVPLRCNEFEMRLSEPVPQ

T2: GST tagged C SH2 domain of PLCγ-1 (663–759) (human, UniProt P19174 663-759)
T2 sequence (looked up): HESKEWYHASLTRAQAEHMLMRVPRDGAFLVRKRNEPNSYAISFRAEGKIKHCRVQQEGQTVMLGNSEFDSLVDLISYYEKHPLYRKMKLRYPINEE


Assays:
CSK, His tagged = CSK, His tagged (UniProt P41240); experiment: immobilised peptide pull-down, anti-CSK blot; conditions: reference: unphosphorylated Y4507 peptide; sites Y4507
Grb2 SH2 domain, 58-159 = Grb2 SH2 domain, 58-159 (UniProt P62993); experiment: immobilised peptide pull-down, anti-GST blot; conditions: reference: unphosphorylated Y4507 peptide; sites Y4507
[1] = molecular target: PLCγ-1 C SH2 domain, 663-759 (UniProt P19174); experiment: immobilised peptide pull-down, anti-GST blot; conditions: reference: unphosphorylated Y4507 peptide; sites Y4507
[2] = molecular target: PLCγ-1 N SH2 domain, 544-659 (UniProt P19174); experiment: immobilised peptide pull-down, anti-GST blot; conditions: reference: unphosphorylated Y4507 peptide; sites Y4507
[3] = molecular target: Shp-2 (Shp2) SH2(C) domain (UniProt Q06124); experiment: immobilised peptide pull-down, anti-ubiquitin tag blot; conditions: reference: unphosphorylated Y4507 peptide; sites Y4507
[4] = molecular target: Shp-2 (Shp2) SH2(N) domain (UniProt Q06124); experiment: as above; conditions: reference: unphosphorylated Y4507 peptide; sites Y4507
[5] = molecular target: GST tagged SH2 domain of Grb2 (58–159) (human, UniProt P62993 58-159); experiment: pull-down
[6] = molecular target: T1, GST tagged N SH2 domain of PLCγ-1 …; experiment: pull-down
[7] = molecular target: T2, GST tagged C SH2 domain of PLCγ-1 …; experiment: pull-down

binding against the reference (CSK, His tagged)	binding against the reference (Grb2 SH2 domain, 58-159)	binding against the reference [1]	binding against the reference [2]	binding against the reference [3]	binding against the reference [4]	binding result [5]	binding result [6]	binding result [7]	Molecule
stronger	stronger	stronger	stronger	stronger	stronger				LDL receptor-related protein 1 (LRP1) NPXY4507 microdomain (from UniProt Q07954) pY4507 peptide
						binds	binds	binds	C[Ahx]TNFTNPV[pY]ATLY [NPXpY_(4507) microdomain of LRP1-CT, tyrosine-phosphorylated]
